Numbering of substitutions follows the chain as printed. Numbers in names are those of the source. Values belong to the binder of their own block, whether it stands above or below them.
Assays:
[1] = biological target: T1, human CLDN4 (claudin 4) (human, UniProt O14493 1-209); experiment: flow cytometry, HEK293 cells stably expressing the claudin
T1 sequence: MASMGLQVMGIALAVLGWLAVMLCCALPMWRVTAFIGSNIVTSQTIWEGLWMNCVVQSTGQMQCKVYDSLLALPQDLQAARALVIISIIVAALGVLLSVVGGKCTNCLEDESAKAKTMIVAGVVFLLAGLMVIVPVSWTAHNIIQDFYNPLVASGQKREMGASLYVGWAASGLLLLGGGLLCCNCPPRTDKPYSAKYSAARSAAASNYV
Experimental: (§1) To test the specificities and affinities of CLDN6-specific chimeric monoclonal antibodies binding to HEK293 cells stably transfected with CLDN3, 4, 6 or 9, respectively, and tumor cell lines that endogenously express CLDN6 was analyzed by flow cytometry. Therefore, cells were harvested with 0.05% Trypsin/EDTA, washed with FACS buffer (PBS containing 2% FCS and 0.1% sodium azide) and resuspended in FACS buffer at a concentration of 2×10⁶ cells/ml. 100 μl of the cell suspension were incubated with the appropriate antibody at indicated concentrations for 60 min at 4° C. A chimeric cross-reactive antibody (chimAB 5F2D2) was used to detect CLDN6 and CLDN9 expression. […] The cells were washed twice and resuspended in FACS buffer. The binding was analyzed by flow cytometry using a BD FACSArray.

[2] = biological target: T2, human CLDN3 (claudin 3) (human, UniProt O15551 1-220); experiment: as above
T2 sequence: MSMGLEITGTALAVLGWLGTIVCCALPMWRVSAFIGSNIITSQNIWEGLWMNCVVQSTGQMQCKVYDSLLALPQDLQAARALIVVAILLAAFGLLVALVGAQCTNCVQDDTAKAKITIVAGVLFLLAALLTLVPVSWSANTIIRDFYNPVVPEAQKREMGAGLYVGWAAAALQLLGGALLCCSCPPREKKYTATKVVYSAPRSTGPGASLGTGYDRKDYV
Experimental: as §1

[3] = biological target: T3, human CLDN6 (claudin 6), full length (human, UniProt P56747 1-220); experiment: flow cytometry, saturation binding on HEK293 cells stably expressing human CLDN6, median fluorescence
T3 construct: denatured cell lysate in the Western blot; also called NP 067018.2
T3 sequence: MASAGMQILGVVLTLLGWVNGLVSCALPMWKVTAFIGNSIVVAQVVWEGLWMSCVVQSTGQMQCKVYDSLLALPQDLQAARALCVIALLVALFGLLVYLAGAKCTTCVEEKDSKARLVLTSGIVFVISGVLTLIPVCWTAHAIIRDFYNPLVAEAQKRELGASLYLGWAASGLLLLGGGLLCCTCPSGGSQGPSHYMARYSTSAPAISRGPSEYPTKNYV
Experimental: (§2) The binding of CLDN6-specific chimeric monoclonal antibodies to cells expressing the target was analyzed by flow cytometry. Therefore, cells were harvested with 0.05% Trypsin/EDTA, washed with FACS buffer (PBS containing 2% FCS and 0.1% sodium azide) and resuspended in FACS buffer at a concentration of 2×10⁶ cells/ml. 100 pl of the cell suspension were incubated with the appropriate antibody at indicated concentrations for 30 min at 4° C. […] The cells were washed twice and resuspended in FACS buffer. The binding was analyzed by flow cytometry using a BD FACSArray.

[4] = biological target: T4, human CLDN9 (claudin 9) (human, UniProt O95484 1-217); experiment: flow cytometry, HEK293 cells stably expressing the claudin
T4 sequence: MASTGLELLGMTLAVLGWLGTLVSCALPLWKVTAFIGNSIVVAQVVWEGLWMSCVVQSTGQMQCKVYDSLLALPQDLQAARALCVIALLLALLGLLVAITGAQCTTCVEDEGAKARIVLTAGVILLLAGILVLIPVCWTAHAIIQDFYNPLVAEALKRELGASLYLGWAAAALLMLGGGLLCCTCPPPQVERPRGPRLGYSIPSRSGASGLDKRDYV
Experimental: as §1

[5] = biological target: T4, human CLDN9 (claudin 9); experiment: flow cytometry, HEK293T cells transiently co-transfected with the claudin and a fluorescence reporter
Experimental: (§3) To test the binding of monoclonal antibodies to CLDN6 and its homologous HEK293T cells were transiently transfected with the corresponding claudin-coding plasmid and the expression was analyzed by flow cytometry. In order to differentiate between transfected and non-transfected cells, HEK293T cells were co-transfected with a fluorescence marker as a reporter. 24 h post transfection cells were harvested with 0.05% trypsin/EDTA, washed with FACS buffer (PBS containing 2% FCS and 0.1% sodium azide) and resuspended in FACS buffer at a concentration of 2×10⁶ cells/ml. 100 μl of the cell suspension were incubated with the appropriate antibody at indicated concentrations for 30 min at 4° C. […] The cells were washed twice and resuspended in FACS buffer. The binding was analyzed by flow cytometry using a BD FACSArray. The expression of the fluorescence marker was plotted on the horizontal axis against the antibody binding on the vertical axis.

[6] = biological target: T1, human CLDN4 (claudin 4); experiment: as above
Experimental: as §3

[7] = biological target: T2, human CLDN3 (claudin 3); experiment: as above
Experimental: as §3

[8] = biological target: T3, human CLDN6 (claudin 6), full length; experiment: flow cytometry on OV90 ovarian cancer cells endogenously expressing CLDN6, median fluorescence
Experimental: as §2

[9] = biological target: T3, human CLDN6 (claudin 6), full length; experiment: flow cytometry on NEC8 testicular cancer cells endogenously expressing CLDN6, median fluorescence
Experimental: as §2

[10] = biological target: T4, human CLDN9 (claudin 9); experiment: flow cytometry, HEK293T cells transiently co-transfected with the claudin and a fluorescence reporter; remark: listed apart in the source
[11] = biological target: T1, human CLDN4 (claudin 4); experiment: as above; remark: listed apart in the source
[12] = biological target: T2, human CLDN3 (claudin 3); experiment: as above; remark: listed apart in the source
[13] = biological target: T3, human CLDN6 (claudin 6), full length; experiment: flow cytometry, NEC8 testicular cancer cells endogenously expressing human CLDN6
Experimental: as §2

B1: chimeric monoclonal antibody chimAB 64A (antibody, human IgG1, kappa, V domains shown)
VH: EVQLQQSGPELVKPGASMKISCKASGYSFTGYTMNWVKQSHGKNLEWIGLINPYNGGTIYNQKFKGKATLTVDKSSSTAYMELLSLTSEDSAVYYCARDYGFVLDYWGQGTTLTVSS
VL: QIVLTQSPSIMSVSPGEKVTITCSASSSVSYMHWFQQKPGTSPKLCIYSTSNLASGVPARFSGRGSGTSYSLTISRVAAEDAATYYCQQRSNYPPWTFGGGTKLEIKR
notes: Mouse/human chimeric IgG1, kappa
- binding result [1]: no binding (tested: 25 µg/ml (legend))
- binding result [2]: no binding (tested: 25 µg/ml (legend))
- EC50 (read off the curve) [3]: ~0.2 µg/mL

B5: chimeric monoclonal antibody mAb206-SUBG (antibody, human IgG1, kappa, V domains shown)
VH: B1 VH
VL: B1 VL with C46G
notes: Chimeric IgG1, kappa; also called amino acid substitution variant (C46G)
- EC50 (read off the curve) [8]: ~0.5 µg/mL
- EC50 (read off the curve) [9]: ~0.5 µg/mL
- binding result [10]: no binding
- binding result [11]: no binding
- binding result [12]: no binding
- EC50 (read off the curve) [3]: ~0.2 µg/mL

B6: chimeric monoclonal antibody mAb206-SUBS (antibody, human IgG1, kappa, V domains shown)
VH: B1 VH
VL: B1 VL with C46S
notes: Chimeric IgG1, kappa; also called amino acid substitution variant (C46S)
- EC50 (read off the curve) [8]: ~0.5 µg/mL
- EC50 (read off the curve) [9]: ~0.5 µg/mL
- binding result [10]: no binding
- binding result [11]: no binding
- binding result [12]: no binding
- EC50 (read off the curve) [3]: ~0.2 µg/mL

B7: chimeric monoclonal antibody mAb206-LCC (antibody, human IgG1, kappa, V domains shown)
VH: B1 VH
VL: QIVLTQSPAIMSASPGEKVTITCSASSSVSYLHWFQQKPGTSPKLWVYSTSNLPSGVPARFGGSGSGTSYSLTISRMEAEDAATYYCQQRSIYPPWTFGGGTKLEIKR
notes: inferred; also called light-chain combination variant
- fold stronger binding affinity compared to chimAB 64A, mAb206-SUBG and mAb206-SUBS [13]: 3 fold
- EC50 (read off the curve) [8]: ~0.4 µg/mL
- EC50 (read off the curve) [9]: ~0.2 µg/mL
- binding result [10]: no binding
- binding result [12]: no binding
- EC50 (read off the curve) [3]: ~0.2 µg/mL

Continued, values first:

- binding result [4]: no binding (tested: 25 µg/ml (legend))
- binding result [1]: no binding (tested: 25 µg/ml (legend))
- binding result [2]: no binding (tested: 25 µg/ml (legend))
B2: chimeric monoclonal antibody chimAB 61D (antibody, human IgG1, kappa, V domains shown)
VH: B1 VH with I59S, V72I, F102Y
VL: B7 VL
notes: as for B1

- binding result [5]: no binding (tested: 25 µg/ml (legend))
- binding result [6]: no binding (tested: 25 µg/ml (legend))
- binding result [7]: no binding (tested: 25 µg/ml (legend))
B3: murine monoclonal antibody muMAB 61D (antibody, mouse IgG2a, V domains shown)
VH: B1 VH with I59S, V72I, F102Y
VL: QIVLTQSPAIMSASPGEKVTITCSASSSVSYLHWFQQKPGTSPKLWVYSTSNLPSGVPARFGGSGSGTSYSLTISRMEAEDAATYYCQQRSIYPPWTFGGGTKLEIK
notes: the assignment is an inference; also called GT512muMAB 61D; DSM ACC3069

- binding result [6]: no binding (tested: 25 µg/ml (legend))
- binding result [7]: no binding (tested: 25 µg/ml (legend))
B4: murine monoclonal antibody muMAB 64A (antibody, mouse IgG2a, V domains shown)
VH: B1 VH
VL: QIVLTQSPSIMSVSPGEKVTITCSASSSVSYMHWFQQKPGTSPKLCIYSTSNLASGVPARFSGRGSGTSYSLTISRVAAEDAATYYCQQRSNYPPWTFGGGTKLEIK
notes: also called GT512muMAB 64A; DSM ACC3070

Reference: US20160264677A1 (GANYMED PHARMACEUTICALS, published 2016)
